According to patent publication US20130244255A1, “ANTIBODIES DIRECTED TO GPNMB AND USES THEREOF” (priority 2006, published 2013):

T1: cell membrane-bound GPNMB protein (Homo sapiens, UniProt Q14956)
T1 construct: endogenous in cells; host or cells: UACC-62 and a panel of melanoma lines (A5)
T1 sequence (Q14956 23-572): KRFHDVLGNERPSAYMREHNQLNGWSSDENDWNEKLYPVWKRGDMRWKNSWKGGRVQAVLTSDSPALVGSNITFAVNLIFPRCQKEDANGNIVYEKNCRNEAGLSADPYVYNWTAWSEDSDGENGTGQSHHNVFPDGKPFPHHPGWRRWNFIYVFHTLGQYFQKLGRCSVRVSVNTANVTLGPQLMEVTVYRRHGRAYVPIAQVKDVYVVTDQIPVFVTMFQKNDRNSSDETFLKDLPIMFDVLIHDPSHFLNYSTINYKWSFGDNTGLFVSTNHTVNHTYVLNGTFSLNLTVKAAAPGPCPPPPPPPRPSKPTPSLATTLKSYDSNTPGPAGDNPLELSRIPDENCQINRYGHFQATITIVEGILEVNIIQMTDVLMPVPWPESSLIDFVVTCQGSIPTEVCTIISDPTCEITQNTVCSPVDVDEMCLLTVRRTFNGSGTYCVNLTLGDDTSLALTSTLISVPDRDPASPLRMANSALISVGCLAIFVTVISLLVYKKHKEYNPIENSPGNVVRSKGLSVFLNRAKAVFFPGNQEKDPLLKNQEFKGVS

T2: GPNMB (Homo sapiens, UniProt Q14956)
T2 construct: we cloned the human CG56972 extracellular domain (ECD; aa 23-480); made in house; host or cells: HEK 293 cells
T2 sequence (Q14956 23-492): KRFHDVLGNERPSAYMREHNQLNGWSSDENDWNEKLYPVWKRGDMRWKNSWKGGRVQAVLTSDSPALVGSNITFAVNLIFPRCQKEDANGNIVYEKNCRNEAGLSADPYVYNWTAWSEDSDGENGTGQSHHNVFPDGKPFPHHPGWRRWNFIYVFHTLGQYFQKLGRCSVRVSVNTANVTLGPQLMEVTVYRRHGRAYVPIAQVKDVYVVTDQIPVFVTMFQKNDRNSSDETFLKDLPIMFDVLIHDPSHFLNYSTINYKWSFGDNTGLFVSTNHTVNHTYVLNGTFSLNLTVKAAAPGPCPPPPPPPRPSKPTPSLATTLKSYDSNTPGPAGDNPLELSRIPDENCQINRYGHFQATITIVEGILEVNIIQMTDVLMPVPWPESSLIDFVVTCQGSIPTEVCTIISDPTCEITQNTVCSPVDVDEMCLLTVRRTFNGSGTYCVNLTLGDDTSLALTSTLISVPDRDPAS

T3: GPNMB (Homo sapiens, UniProt Q14956)
T3 construct: Tissue sections (5 μm) were cut from formalin fixed and paraffin embedded tissue samples; tissue IMPATH, Los Angeles, Calif; host or cells: normal and tumor human tissue microarrays (melanoma, lung and other carcinomas, skin)
T3 sequence (Q14956 23-572): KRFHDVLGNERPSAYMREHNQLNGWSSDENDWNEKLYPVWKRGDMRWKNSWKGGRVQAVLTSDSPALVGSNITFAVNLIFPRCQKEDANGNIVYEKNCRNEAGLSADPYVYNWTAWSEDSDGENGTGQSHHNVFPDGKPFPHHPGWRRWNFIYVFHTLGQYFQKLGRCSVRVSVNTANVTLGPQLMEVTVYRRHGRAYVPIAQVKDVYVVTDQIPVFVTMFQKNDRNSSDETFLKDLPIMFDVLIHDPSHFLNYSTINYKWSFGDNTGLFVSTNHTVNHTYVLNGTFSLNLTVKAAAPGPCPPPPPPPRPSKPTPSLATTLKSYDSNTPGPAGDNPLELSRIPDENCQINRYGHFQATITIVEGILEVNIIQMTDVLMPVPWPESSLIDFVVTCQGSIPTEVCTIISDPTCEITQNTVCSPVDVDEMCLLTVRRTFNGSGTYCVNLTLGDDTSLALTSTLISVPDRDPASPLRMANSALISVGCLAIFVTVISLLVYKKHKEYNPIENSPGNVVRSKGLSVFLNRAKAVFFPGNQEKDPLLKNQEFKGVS

B1: 2.22.1: human anti-GPNMB antibody; VH SEQ ID NO: 164, VL SEQ ID NO: 173 (antibody, listed as Homo sapiens, V domains shown)
VH: QVQLEQSGPGLVKPSQNLSLTCTVSGGSISSGGYFWSWIRQHPGKGLEWIGYIYYSGNTYYNPSLKSRVTISVDTSKNQFSLKLSSVTAADTAVYYCARDYYYDTSGFSYRYDWYYGMDVWGQGTTVTVSSA
VL: DIQLTQSPSSLSASVGDRVTITCRASQGIRNDLGWYQQKPGKAPKRLIYAASSLQNGVPSRFSGSGSGTEFTLTISSLQPEDFATYYCLQHNTYPAFGQGTKVEIKR
B2: 1.2.2: human anti-GPNMB antibody; VH SEQ ID NO: 38, VL SEQ ID NO: 47 (antibody, listed as Homo sapiens, V domains shown)
VH: ITLKESGPTLVKPTQTLTLTCTFSGFSLSAGGVGVGWIRQPPGKALEWLALIYWNDDKRYSPSLRSRLTITKDTSKNQVVLTITNMDPVDTATYYCAHSHYDYDWGSYFDYWGQGTLVTVSSA
VL: DIVMTQTPLSLPVTPGEPASISCRSSQSLLDSDDGNTYLDWYLQKPGQSPQLLIYTLSYRASGVPDRFSGSGSGTDFTLNISRVEAEDVGVYYCMQRIEFPITFGQGTRLEIKR
B3: 1.7.1: human anti-GPNMB antibody; VH SEQ ID NO: 56, VL SEQ ID NO: 65 (antibody, listed as Homo sapiens, V domains shown)
VH: QVQLQESGPGLVKPSQTLSLTCTVSGGSISSANYYWTWIRQHPGKGLEWIGYIYYSGSTYCNPSLKSRVIISVDTSKNQFSLKLSSVTAADTAVYYCARGYNWNYFDYWGQGTLVTVSSA
VL: DIVMTQSPATLSVSPGERATLSCRASQSVSSNLAWYQERPGQAPRLLIYGASTRATGIPARFSGSGSGTEFTLTISSLQSEDFAVYYCQQYNKWPPWTFGQGTKVEIER
B4: 1.10.2: human anti-GPNMB antibody; VH SEQ ID NO: 2, VL SEQ ID NO: 11 (antibody, listed as Homo sapiens, V domains shown)
VH: QVQLQESGPGLVKPSETLSLTCTVSGDSISNYYWSWIRQPPGKGLEWIGYFYYSGSTNYNPSLKSRVTISVDTSKNQFSLKLSSVTAADTAVYYCARDRGWADYWGQGTLVTVSSA
VL: EIVLTQSPGTLSLSPGERATLSCRTSQSISSSYLAWYQQKPGQVPRLLIYGASSRATGIPDRFSGSGSGTDFTLTISRLEPEDFAVYYCQQYGSSITFGQGTRLEIKR

Key:
[1] = molecular target: T1, cell membrane-bound GPNMB protein; assay: FACS analysis of anti-GPNMB antibody binding to melanoma cell lines; settings: primary antibody 1 μg/mL
GPNMB [2] = molecular target: T2, GPNMB; assay: Binning of antibodies (Luminex competitive binding); settings: three bins of six anti-GPNMB antibodies
Protocol: Certain antibodies, described herein were binned in accordance with the protocol described in U.S. Patent Application Publication No. 20030157730. M×hIgG conjugated beads are prepared for coupling to primary antibody. The volume of supernatant needed is calculated using the following formula: (n+10)×50 μL (where n=total number of samples on plate). Where the concentration is known, 0.5 μg/mL is used. Bead stock is gently vortexed, then diluted in supernatant to a concentration of 2500 of each bead per well or 0.5×10^5/mL and incubated on a shaker in the dark at RT overnight, or 2 hours if at a known concentration of 0.5 μg/mL. Following aspiration, 50 μL of each bead is added to each well of filter plate, then washed once by adding 100 μL/well wash buffer and aspirating. Antigen and controls are added to filter plate 50 μL/well then covered and allowed to incubate in the dark for 1 hour on shaker. Following a wash step, a secondary unknown antibody is added at 50 μL/well using the same dilution (or concentration if known) as is used for the primary antibody. The plates are then incubated in the dark for 2 hours at RT on shaker followed by a wash step. Next, 50 μL/well biotinylated m×hIgG diluted 1:500 is added and allowed to incubate in the dark for 1 hour on shaker at RT. […] Following a wash step, each well is resuspended in 80 μL blocking buffer and read using Luminex. […]

GPNMB [3] = molecular target: T3, GPNMB; assay: GPNMB immunohistochemistry (IHC) on human tissue microarrays; assay type: binding; settings: normal and tumor human tissue microarrays (lung, ovarian, renal, esophagus, head & neck carcinomas, squamous cell carcinoma, melanomas, normal skin)
Protocol: Anti-GPNMB monoclonal antibodies were evaluated for reactivity with frozen and fixed tissue specimens. Tissue sections (5 μm) were cut from formalin fixed and paraffin embedded tissue samples and were rehydrated through incubations in xylene and a graded ethanol series terminating in PBS. Endogenous peroxidase activity was quenched in a 3% solution of hydrogen peroxide in methanol
Tissue sections were blocked in blocking buffer (5% BSA (Sigma), 1% goat serum (Jackson Immunolabs, West Grove, Pa.) in PBS) for 1 hour. Primary and secondary antibodies were precomplexed in 5% BSA and 1% goat serum in PBS for 1 hour at 37° C. at a molar ratio of approximately 10:1 of anti-GPNMB or control IgG to secondary biotinylated goat anti-human IgG (Jackson Immunolabs). Complexes were blocked with a 1:2000 dilution of human serum and incubated again for 1 hour at 37° C. Tissue sections were incubated with anti-GPNMB antibody or isotype control antibody complexes diluted in blocking buffer for 1 hour. Sections were washed in 3 changes of PBS for 5 to 10 minutes each and incubated with a 1:200 dilution of streptavidin conjugated horseradish peroxidase (Jackson Immunolabs) in blocking buffer for 30 minutes and then washed as before. Antibody was detected using DAB reagent (Vector labs). […]

GPNMB [4] = molecular target: T2, GPNMB; assay: ELISA of hybridoma supernatants for binding to GPNMB
Protocol: After 14 days of culture, hybridoma supernatants were screened for GPNMB specific monoclonal antibodies. In the Primary screen, the ELISA plates (Fisher, Cat. No. 12-565-136) were coated with 50 μL/well of GPNMB (1 μg/mL) in Coating Buffer (0.1 M Carbonate Buffer, pH 9.6, NaHCO3 8.4 g/L), then incubated at 4° C. overnight. After incubation, the plates were washed with Washing Buffer (0.05% Tween 20 in PBS) three times. 200 μL/well Blocking Buffer (0.5% BSA, 0.1% Tween 20, 0.01% Thimerosal in 1×PBS) were added and the plates were incubated at room temperature for 1 h. After incubation, the plates were washed with Washing Buffer three times. Aliquots (50 μL/well) of hybridoma supernatants and positive and negative controls were added, and the plates were incubated at room temperature for 2 h. The positive control used throughout was serum from the relevant GPNMB immunized XenoMouse® mouse and the negative control was serum from the KLH-immunized relevant strain of XenoMouse® mouse. After incubation, the plates were washed three times with Washing Buffer. 100 μL/well of detection antibody goat anti-huIgGfc-HRP (Caltag, Cat. No. H10507, using concentration was 1:2000 dilution) was added and the plates were incubated at room temperature for 1 hour. After incubation, the plates were washed three times with Washing Buffer. 100 μl/well of TMB (BioFX Lab. Cat. No. TMSK-0100-01) was added, and the plates were allowed to develop for about 10 minutes (until negative control wells barely started to show color). 50 μl/well stop solution (TMB Stop Solution (BioFX Lab. Cat. No. STPR-0100-01) was then added and the plates were read on an ELISA plate reader at a wavelength of 450 nm.
Hybridoma supernatants were screened for binding to GPNMB by ELISA as described above in Example 2.

GPNMB [5] = molecular target: T2, GPNMB; assay: BiaCore 2000 analysis of hybridoma supernatants binding to GPNMB; settings: mAb captured on protein A; GPNMB at 880 nM; 1:1 kinetic model
Protocol: Certain Hybridoma cell supernatants (29) were analyzed for binding to GPNMB by BiaCore® 2000 biosensor equipped with a research-grade CM5 sensor chip. A 1:25 dilution of cell supernatant was passed over a protein A surface for 5 min followed by washing the surface for 10 mins. Subsequently, GPNMB was injected for 90 sec. over the surface at a concentration of 880 nM followed by dissociation. Double-referenced binding data were obtained by subtracting the signal from a control flow cell and subtracting the baseline drift of a buffer injected just prior to the antigen injection. GPNMB binding data for each mAb was normalized for the amount of mAb captured on each surface. Normalized, drift corrected responses were also measured. The sensorgrams were fit to a simple 1:1 kinetic model.

[6] = TK10 Cells (GPNMB negative control)

Row | Molecule | Geo Mean Ratio of anti-GPNMB Staining (relative to pK16) [1, 6] | Geo Mean Ratio of anti-GPNMB Staining (relative to pK16) ([1]; UACC-62 Cells) | bin (GPNMB [2]) | IHC staining (GPNMB [3]) | Avg OD (GPNMB [4]; antibody at 12.3 ng/mL) | Avg OD (GPNMB [4]; antibody at 37 ng/mL) | Avg OD (GPNMB [4]; antibody at 111 ng/mL) | Avg OD (GPNMB [4]; antibody at 333 ng/mL) | Avg OD (GPNMB [4]; antibody at 1 μg/mL) | Avg OD (GPNMB [4]; antibody at 3 μg/mL) | ka (GPNMB [5]) [M⁻¹ s⁻¹] | kd (GPNMB [5]) [s⁻¹]
1 | B1 | I. 1.10 | H. 4.46 | Bin 1 | Positive staining | – | – | – | – | – | – | – | –
2 | B2 | L. 0.98 | K. 1.24 | – | – | 0.049 | 0.094 | 0.199 | 0.356 | 0.499 | 0.763 | 9257 | 0.00089
3 | B3 | – | – | – | – | – | – | – | – | – | – | 11842 | 0.00144
4 | B4 | – | – | – | – | – | – | – | – | – | – | 3955 | 0.000466
